# Measurements: patent US20230165981A1, “[161Tb]-BASED RADIOPEPTIDES” (priority 2021, published 2023)
# “And” between values parts separate entries of the source, which are not always exact repeats. Identical values can stand only once. Like-named read-outs stand apart in the source and are kept apart here. Positions of bridges follow the written chain, without caps; N, C: chain ends. Non-standard residues stand in square brackets, D forms with d. Residues, ends and D or L forms follow the SMILES beside them. *: point of attachment. DOTA = O=C(O)CN1CCN(CC(=O)O)CCN(CC(=O)*)CCN(CC(=O)O)CC1; dPhe(4-NHCONH2) = NC(=O)Nc1ccc(C[C@@H](N)C(=O)O)cc1; Phe(4-Cl) = N[C@@H](Cc1ccc(Cl)cc1)C(=O)O
# Experiments:
# [1] = Biodistribution: optimum injected molar amount; conditions: female, mouse, in vivo, iv, total radioactivity, 2 h p.i.
# [2] = n-octanol/PBS distribution coefficient (logD), shake-flask method; assay type: physicochemical; conditions: n-octanol/PBS pH 7.4
# Procedure: An aliquot of the radiolabeled peptide (0.5 MBq, 25 µL) was added to a mixture of 1475 µL PBS pH 7.4 and 1500 µL n-octanol. The respective tubes were vortexed for 60 sec and centrifuged for 6 min at 2500 rpm followed by the measurement of the activity concentration in a defined volume of each layer using a γ-counter (Perkin Elmer, Wallac Wizard 1480). The logD values were calculated as the logarithm of the ratio of counts per minute (cpm) measured in the n-octanol phase relative to the cpm measured in the PBS pH 7.4 phase. The experiments were performed three times with five replicates for each radiopeptide and the logD value was expressed as the average ± standard deviation (SD) of the values obtained in each experiment. […] A p value <0.05 was considered statistically significant.
# [3] = tested on: AR42J tumor-bearing mice; experiment: Biodistribution: optimum injected molar amount; conditions: 2 h p.i.
# [4] = Assessment of early side effects in therapy mice; conditions: endpoint of therapy
# Procedure: Early side effects were assessed based on the RBW of each mouse which was monitored every second day. When an endpoint was reached or at the end of the study (after 49 days), relevant organs and tissues were collected, weighed and put into relation to the brain mass and body weight of the respective mouse. This allowed comparison of organ-to-brain and organ-to-body mass weight ratios. In addition, blood plasma parameters from blood collected immediately after euthanasia were measured.
# RBW, organ mass and mass ratios at the endpoint: The RBW was monitored every second day. Mice were euthanized when a predefined endpoint criterion was reached or when the study was terminated at Day 49. RBWs, organ masses, organ mass ratios (kidney-to-brain, liver-to-brain and spleen-to-brain) and organ mass to body weight ratios (kidney-to-body mass, liver-to-body mass and spleen-to-body mass) were analyzed for significance using a one-way ANOVA test with a Tukey’s multiple comparisons post-test. A p-value of <0.05 was considered as statistically significant.
# Blood plasma chemistry: Immediately before euthanasia of the mice that reached the endpoint, blood was sampled from the retrobulbar vein. The values of creatinine (CRE), blood urea nitrogen (BUN), alkaline phosphatase (ALP), total bilirubin (TBIL) and albumin (ALB) were determined in the plasma after centrifugation of the blood using a dry chemistry analyzer (DRI-CHEM 4000i, FUJIFILM, Japan). The average blood plasma parameters of each group were analyzed for significance using a one-way ANOVA test with a Tukey’s multiple comparisons post-test. A p-value of <0.05 was considered as statistically significant.
# [5] = tested on: AR42J tumors; experiment: Preclinical therapy study in AR42J tumor-bearing mice; assay type: in vivo
# [6] = in vivo; conditions: female, athymic nude (CD-1 Foxn-1nu), mouse, iv, 1 nmol/mouse, total radioactivity
# Procedure: Five-week-old female, athymic nude mice (CD-1 Foxn-⅟nu) were obtained from Charles River Laboratories (Sulzfeld, Germany). Mice were subcutaneously inoculated with AR42J tumor cells (5 × 10^6 cells in 100 µL PBS) for SPECT/CT imaging, biodistribution and therapy studies. The SPECT/CT and biodistribution studies were performed 10-14 days after tumor cell inoculation when the tumor size reached a volume of ~250 mm^3.
# The mice were sacrificed at 2 h and 24 h post injection (p.i.). Selected tissues and organs were collected, weighed, and the accumulated activity was counted in a γ-counter. The decay-corrected data were listed as the percentage of the injected activity per gram of tissue mass (% IA/g). The data were analyzed for significance using a two-way ANOVA with Tukey’s multiple comparison post-tests. A p-value of <0.05 was considered statistically significant.
structure (smiles),measurement,setting,value
"C[C@@H](O)[C@@H]1NC(=O)[C@H](CCCCN)NC(=O)[C@@H](Cc2c[nH]c3ccccc23)NC(=O)[C@H](Cc2ccc(O)cc2)NC(=O)[C@@H](NC(=O)[C@@H](Cc2ccccc2)NC(=O)CN2CCN(CC(=O)O)CCN(CC(=O)O)CCN(CC(=O)O)CC2)CSSC[C@@H](C(=O)N[C@H](CO)[C@@H](C)O)NC1=O [[^161Tb]Tb-DOTATOC, metal not drawn]",tissue uptake at 2 h,"[1]; CD-1 Foxn-1nu athymic nude, 0.04 nmol/mouse, Biodistribution: Adrenals, 0.040 nmol/mouse",0.65 ± 0.08 %ID/g
same,tissue uptake at 2 h,"[1]; CD-1 Foxn-1nu athymic nude, 0.04 nmol/mouse, Biodistribution: Kidneys, 0.040 nmol/mouse",9 ± 2 %ID/g
same,tissue uptake at 2 h,"[1]; CD-1 Foxn-1nu athymic nude, 0.2 nmol/mouse, Biodistribution: Heart, 0.20 nmol/mouse",< 0.1 %ID/g
same,tissue uptake at 2 h,"[1]; athymic nude (CD-1 Foxn-1nu), 0.04 nmol/mouse, Biodistribution: AR42J Tumor, 0.040 nmol/mouse",16 ± 4 %ID/g
same,tissue uptake at 2 h,"[1]; athymic nude (CD-1 Foxn-1nu), 0.04 nmol/mouse, Biodistribution: Blood, 0.040 nmol/mouse",< 0.1 %ID/g
same,tissue uptake at 2 h,"[1]; athymic nude (CD-1 Foxn-1nu), 0.04 nmol/mouse, Biodistribution: Heart, 0.040 nmol/mouse",< 0.1 %ID/g
same,tissue uptake at 2 h,"[1]; athymic nude (CD-1 Foxn-1nu), 0.04 nmol/mouse, Biodistribution: Muscle, 0.040 nmol/mouse",< 0.1 %ID/g
same,tissue uptake at 2 h,"[1]; athymic nude (CD-1 Foxn-1nu), 0.2 nmol/mouse, Biodistribution: AR42J Tumor, 0.20 nmol/mouse",14 ± 1 %ID/g
same,tissue uptake at 2 h,"[1]; athymic nude (CD-1 Foxn-1nu), 0.2 nmol/mouse, Biodistribution: Blood, 0.20 nmol/mouse",< 0.1 %ID/g
same,tissue uptake at 2 h,"[1]; athymic nude (CD-1 Foxn-1nu), 0.2 nmol/mouse, Biodistribution: Muscle, 0.20 nmol/mouse",< 0.1 %ID/g
same,tissue uptake at 2 h,"[1]; athymic nude (CD-1 Foxn-1nu), 1 nmol/mouse, Biodistribution: AR42J Tumor, 1.0 nmol/mouse",~8 %ID/g
same,tissue uptake at 2 h,"[1]; athymic nude (CD-1 Foxn-1nu), kidney uptake, irrespective of the applied setting (0.04-1.0 nmol)",~10 %ID/g
C[C@@H](O)[C@@H]1NC(=O)[C@H](CCCCN)NC(=O)[C@@H](Cc2c[nH]c3ccccc23)NC(=O)[C@H](Cc2ccc(O)cc2)NC(=O)[C@@H](NC(=O)[C@@H](Cc2ccccc2)NC(=O)CN2CCN(CC(=O)O)CCN(CC(=O)O)CCN(CC(=O)O)CC2)CSSC[C@@H](C(=O)N[C@H](CO)[C@@H](C)O)NC1=O [[^177Lu]Lu-DOTATOC] [metal not drawn],LogD,[2],-3.1 ± 0.2
same,Biodistribution: AR42J Tumor,[3]; 0.040 nmol/mouse,~ 17 % IA/g
same,Biodistribution: Blood,[3]; 0.040 nmol/mouse,≤0.10 % IA/g
same,Biodistribution: Heart,[3]; 0.040 nmol/mouse,≤0.10 % IA/g
same,Biodistribution: Kidneys,[3]; 0.040 nmol/mouse,10 ± 2 % IA/g
same,Biodistribution: Muscle,[3]; 0.040 nmol/mouse,≤0.10 % IA/g
same,Tu-to-adr (tumor-to-adrenals),[3]; 0.040 nmol/mouse,28 ± 2
same,Tu-to-blood,[3]; 0.040 nmol/mouse,213 ± 41
same,Tu-to-kidney,[3]; 0.040 nmol/mouse,1.9 ± 0.3
same,Tu-to-liver,[3]; 0.040 nmol/mouse,100 ± 8
same,Tu-to-lung (tumor-to-lungs),[3]; 0.040 nmol/mouse,17 ± 3
same,Tu-to-panc (tumor-to-pancreas),[3]; 0.040 nmol/mouse,9.7 ± 1.8
same,Tu-to-sto (tumor-to-stomach),[3]; 0.040 nmol/mouse,11 ± 2
same,Biodistribution: Blood,[3]; 0.20 nmol/mouse,<0.10 % IA/g
same,Biodistribution: Femur,[3]; 0.20 nmol/mouse,0.10 ± 0.01 % IA/g
same,Biodistribution: Heart,[3]; 0.20 nmol/mouse,<0.10 % IA/g
same,Biodistribution: Kidneys,[3]; 0.20 nmol/mouse,10 ± 3 % IA/g
same,Biodistribution: Muscle,[3]; 0.20 nmol/mouse,<0.10 % IA/g
same,Tu-to-adr (tumor-to-adrenals),[3]; 0.20 nmol/mouse,47 ± 29
same,Tu-to-blood,[3]; 0.20 nmol/mouse,235 ± 60
same,Tu-to-kidney,[3]; 0.20 nmol/mouse,1.9 ± 0.4
same,Tu-to-liver,[3]; 0.20 nmol/mouse,118 ± 24
same,Tu-to-lung (tumor-to-lungs),[3]; 0.20 nmol/mouse,27 ± 6
same,Tu-to-panc (tumor-to-pancreas),[3]; 0.20 nmol/mouse,10 ± 2
same,Tu-to-sto (tumor-to-stomach),[3]; 0.20 nmol/mouse,15 ± 4
same,Biodistribution: AR42J Tumor,[3]; 1.0 nmol/mouse,8.9 ± 1.5 % IA/g
same,Biodistribution: Adrenals,[3]; 1.0 nmol/mouse,0.28 ± 0.08 % IA/g
same,Biodistribution: Blood,[3]; 1.0 nmol/mouse,<0.10 % IA/g
same,Biodistribution: Femur,[3]; 1.0 nmol/mouse,<0.10 % IA/g
same,Biodistribution: Heart,[3]; 1.0 nmol/mouse,<0.10 % IA/g
same,Biodistribution: Intestines,[3]; 1.0 nmol/mouse,0.20 ± 0.05 % IA/g
same,Biodistribution: Kidneys,[3]; 1.0 nmol/mouse,11 ± 1 % IA/g
same,Biodistribution: Liver,[3]; 1.0 nmol/mouse,0.26 ± 0.07 % IA/g
same,Biodistribution: Lung,[3]; 1.0 nmol/mouse,0.37 ± 0.06 % IA/g
same,Biodistribution: Muscle,[3]; 1.0 nmol/mouse,<0.10 % IA/g
same,Biodistribution: Pancreas,[3]; 1.0 nmol/mouse,0.80 ± 0.13 % IA/g
same,Biodistribution: Spleen,[3]; 1.0 nmol/mouse,0.15 ± 0.03 % IA/g
same,Biodistribution: Stomach,[3]; 1.0 nmol/mouse,0.65 ± 0.11 % IA/g
same,Tu-to-adr (tumor-to-adrenals),[3]; 1.0 nmol/mouse,29 ± 3
same,Tu-to-lung (tumor-to-lungs),[3]; 1.0 nmol/mouse,25 ± 3
same,Tu-to-panc (tumor-to-pancreas),[3]; 1.0 nmol/mouse,13 ± 1
same,Tu-to-sto (tumor-to-stomach),[3]; 1.0 nmol/mouse,15 ± 5
same,kidney uptake,[3]; irrespective of the applied setting (0.04-1.0 nmol),~ 10%
same,ALB (albumin),[4],24 ± 5 g/L
same,ALP (alkaline phosphatase),[4],77 ± 8 U/L
same,BUN (blood urea nitrogen),[4],6.3 ± 0.9 mmol/L
same,CRE (plasma creatinine),[4],<18 (n=5) µmol/L
same,TBIL (total bilirubin),[4],< 3 µmol/L and 4 ± 1 µmol/L
same,Median survival,"[5]; 2 x 10 MBq, 0.2 nmol",19.5 days
same,tumor growth delay,"[5]; 2 x 10 MBq, 0.2 nmol, Day 0 and 7",6.0 ± 4.4 days
same,Time frame of euthanasia,"[5]; 2 x 10 MBq, 0.2 nmol, end of study = 49 days",12 to 22 days
same,tumor doubling time,[5]; regrowth phase,3.4 ± 0.8 days
C[C@@H](O)[C@@H]1NC(=O)[C@H](CCCCN)NC(=O)[C@@H](Cc2ccc(NC(N)=O)cc2)NC(=O)[C@H](Cc2ccc(O)cc2)NC(=O)[C@H](NC(=O)[C@H](Cc2ccc(Cl)cc2)NC(=O)CN2CCN(CC(=O)O)CCN(CC(=O)O)CCN(CC(=O)O)CC2)CSSC[C@@H](C(=O)N[C@H](Cc2ccc(O)cc2)C(N)=O)NC1=O [metal not drawn] ({DOTA}-[Phe(4-Cl)][dC]Y[dPhe(4-NHCONH2)]KTC[dY]-NH2; disulfide 2-7),LogD,[2]; read-out: LogD,-2.5 ± 0.1
same,Tu-to-adr (tumor-to-adrenals),[3]; 0.040 nmol/mouse,11 ±4
same,Tu-to-blood,[3]; 0.040 nmol/mouse,289 ± 45
same,Tu-to-kidney,[3]; 0.040 nmol/mouse,4.3 ± 1.2
same,Tu-to-adr (tumor-to-adrenals),[3]; 0.20 nmol/mouse,34 ± 9.2
same,Tu-to-blood,[3]; 0.20 nmol/mouse,492 ± 102
same,Tu-to-kidney,[3]; 0.20 nmol/mouse,4.3 ± 0.4
same,Tu-to-liver,[3]; 0.20 nmol/mouse,90 ± 11
same,Biodistribution: Blood,[3]; 1.0 nmol/mouse,≤0.10 % IA/g
same,Biodistribution: Heart,[3]; 1.0 nmol/mouse,≤0.10 % IA/g
same,Biodistribution: Muscle,[3]; 1.0 nmol/mouse,≤0.10 % IA/g
same,Tu-to-adr (tumor-to-adrenals),[3]; 1.0 nmol/mouse,36 ± 6
same,ALB (albumin),[4],23 ± 1 g/L
same,ALP (alkaline phosphatase),[4],66 ± 5 U/L
same,BUN (blood urea nitrogen),[4],8.2 ± 1.9 mmol/L and 8.2 ± 1.8 mmol/L
same,CRE (plasma creatinine),[4],<18 (n=5) µmol/L and 19 (n=1) µmol/L
same,TBIL (total bilirubin),[4],<3 (n=4) µmol/L and 4 ± 1 (n=2) µmol/L
same,tissue uptake at 24 h,[6]; intestines,0.14 ± 0.03 %ID/g
same,tissue uptake at 2 h,[6]; kidneys,11 ± 1 %ID/g
